In patent US11015206B2, “Compositions and methods comprising sequences having hydroxyphenylpyruvate dioxygenase (HPPD) activity” (PIONEER HI-BRED INTERNATIONAL, INC., priority 2014, dated 2021):
Substitutions are numbered along the chain they refer to. Values belong to the molecule of their own block, whether it stands above or below them.

How the values were obtained:
Format in all cases: biochemical, Z. mays
[1] = test system: 4-hydroxyphenylpyruvate dioxygenase (HPPD); experiment: Estimate of kcat from initial rate at saturating hydroxyphenylpyruvate without inhibitor (ON rate ratio assay)
Procedure, shortened: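 Reactions used 60 or 120 nM HPPD and saturating 100 μM hydroxyphenylpyruvate without inhibitor. kcat was estimated from the initial rate at the known enzyme concentration.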

[2] = test system: 4-hydroxyphenylpyruvate dioxygenase (HPPD); experiment: Insensitivity parameter (ON × OFF) and trait fitness (ON × OFF × kcat/KM or × kcat); parameters: key to ON × OFF / Insensitivity, mesotrione, ON × OFF / Insensitivity, tembotrione, ON × OFF / Insensitivity, topramezone, ON × OFF / Insensitivity, sulcotrione, ON × OFF / Insensitivity, isoxaflutole (DKN), ON × OFF: insensitivity = ON rate ratio × OFF rate ratio (surrogate for KD)
Procedure, shortened: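 Calculated, not measured directly: ON rate ratio × OFF rate ratio gives an insensitivity parameter serving as a KD surrogate.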

[3] = test system: 4-hydroxyphenylpyruvate dioxygenase (HPPD); experiment: ON rate ratio: HPPD reaction rate with vs without inhibitor in the 70 to 90 second interval; conditions: Table 7; tembotrione; combinatorial variants
Procedure, shortened: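 Time courses of HPPD reactions, 60 or 120 nM enzyme with 100 μM HPP substrate, run with and without 4 μM inhibitor (e.g. mesotrione, tembotrione). Value is the rate with inhibitor over rate without, taken over 70–90 s; higher ratio reflects slower kON.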

[4] = test system: 4-hydroxyphenylpyruvate dioxygenase (HPPD); experiment: OFF rate ratio: release of inhibitor from pre-formed enzyme-inhibitor complex; conditions: Table 7; tembotrione; combinatorial variants
Procedure, shortened: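 HPPD (7.2 μM) pre-incubated 1 h at RT with inhibitor (8 μM), then diluted into 25 mM Hepes pH 7, 2 mM ascorbate, 10 μM FeSO4, 100 μM HPP, 50 nM HGD; A320 followed 12 min. Ratio = steady-state rate with inhibitor over initial rate of inhibitor-free enzyme.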

[5] = Table 7, combinatorial variants
[6] = Table 7, tembotrione, combinatorial variants

ON × OFF ([2]; Megatable 3, shuffled variants): 0.238
ON × OFF [2, 6]: 0.238
ON rate ratio [3]: 0.702
OFF rate ratio [4]: 0.339
B2: P056028-E-10 (protein)
chain: MGPTPTATAAGAAVAAASAAEQAAFRLVGHRNFVRFNPRSDRFQTLAFHHVELWCADAASAAGRFSFALGVPLAARSDLSTGNSAHASLLLRSGSLSLLFTAPYAHGADAATAALPSFSAAAARRFAADHGLAVRAVALRVADAEDAFRASVAAGARPAFGPVDLGRGFRLAEVELYGDVVMRYVSYPDGAAGEPFLPGFEGVASQGAADYGLSRFDHIVGNVPELAPAAAYMAGFTGFHEFAEFTTEDVGTTESGLNSMALANNSENVLLPLNEPVHGTKRRSQIQTFLDHHGGPGVQHIALASDDVLRTLREMRARSAMGGFEFLPPPLSDYYDGVRRCAGDVLTEAQINECQELGVMVDRDDEGVLLQIFTKPVGDRPTFFLEIIQRIGCMEKDEKGQEYQKGGCGGFGKGNFGQLFKSIEDYEKSLEAKQAAAAATAQGS
modifications: Zea mays variant form created by artificial means.
kcat ([1]; Megatable 3, shuffled variants): 0.192 s⁻¹
kcat [1, 5]: 0.192 s⁻¹
ON × OFF × kcat ([2]; Megatable 3, shuffled variants): 2.73
ON × OFF × kcat [2, 6]: 2.73

ON × OFF ([2]; Megatable 3, shuffled variants): 0.303
ON × OFF [2, 6]: 0.303
ON rate ratio [3]: 0.735
OFF rate ratio [4]: 0.412
B3: P056028-E-03 (protein)
chain: B2 chain with T45A, M182L, Q206P, G417S
modifications: Zea mays variant form created by artificial means.
kcat ([1]; Megatable 3, shuffled variants): 0.282 s⁻¹
kcat [1, 5]: 0.282 s⁻¹
ON × OFF × kcat ([2]; Megatable 3, shuffled variants): 5.10
ON × OFF × kcat [2, 6]: 5.10

ON × OFF ([2]; Megatable 3, shuffled variants): 0.242
ON × OFF [2, 6]: 0.242
ON rate ratio [3]: 0.652
OFF rate ratio [4]: 0.371
B5: P056028-D-09 (protein)
chain: B2 chain with M182L, A191G, Q206P, E356K
modifications: Zea mays variant form created by artificial means.
kcat ([1]; Megatable 3, shuffled variants): 0.217 s⁻¹
kcat [1, 5]: 0.217 s⁻¹
ON × OFF × kcat ([2]; Megatable 3, shuffled variants): 3.16
ON × OFF × kcat [2, 6]: 3.16

ON × OFF ([2]; Megatable 3, shuffled variants): 0.188
ON × OFF [2, 6]: 0.188
ON rate ratio [3]: 0.719
OFF rate ratio [4]: 0.261
B7: P056028-D-11 (protein)
chain: B2 chain with A142T, M182L, A191G, Q206P, R340K
modifications: Zea mays variant form created by artificial means.
kcat ([1]; Megatable 3, shuffled variants): 0.285 s⁻¹
kcat [1, 5]: 0.285 s⁻¹
ON × OFF × kcat ([2]; Megatable 3, shuffled variants): 3.21
ON × OFF × kcat [2, 6]: 3.21

ON × OFF ([2]; Megatable 3, shuffled variants): 0.229
ON × OFF [2, 6]: 0.229
ON rate ratio [3]: 0.704
OFF rate ratio [4]: 0.325
B9: P056028-E-05 (protein)
chain: B2 chain with M182L, A191G, Q206S, G417Q
modifications: Zea mays variant form created by artificial means.
kcat ([1]; Megatable 3, shuffled variants): 0.253 s⁻¹
kcat [1, 5]: 0.253 s⁻¹
ON × OFF × kcat ([2]; Megatable 3, shuffled variants): 3.48
ON × OFF × kcat [2, 6]: 3.48

ON × OFF ([2]; Megatable 3, shuffled variants): 0.170
ON × OFF [2, 6]: 0.170
ON rate ratio [3]: 0.670
OFF rate ratio [4]: 0.253
B10: P056028-D-10 (protein)
chain: B2 chain with M182L, N265D
modifications: Zea mays variant form created by artificial means.
kcat ([1]; Megatable 3, shuffled variants): 0.302 s⁻¹
kcat [1, 5]: 0.302 s⁻¹
ON × OFF × kcat ([2]; Megatable 3, shuffled variants): 3.07
ON × OFF × kcat [2, 6]: 3.07

ON × OFF ([2]; Megatable 3, shuffled variants): 0.219
ON × OFF [2, 6]: 0.219
ON rate ratio [3]: 0.721
OFF rate ratio [4]: 0.304
B11: P056028-E-11 (protein)
chain: B2 chain with M182L, A191G, Q206S
modifications: Zea mays variant form created by artificial means.
kcat ([1]; Megatable 3, shuffled variants): 0.282 s⁻¹
kcat [1, 5]: 0.282 s⁻¹
ON × OFF × kcat ([2]; Megatable 3, shuffled variants): 3.70
ON × OFF × kcat [2, 6]: 3.70

ON × OFF ([2]; Megatable 3, shuffled variants): 0.064
ON × OFF [2, 6]: 0.064
ON rate ratio [3]: 0.346
OFF rate ratio [4]: 0.186
B14: P056028-E-06 (protein)
chain: B2 chain with M182L, Q206P, E244K, R340K, M394K
modifications: Zea mays variant form created by artificial means.
kcat ([1]; Megatable 3, shuffled variants): 0.47 s⁻¹
kcat [1, 5]: 0.47 s⁻¹
ON × OFF × kcat ([2]; Megatable 3, shuffled variants): 1.76
ON × OFF × kcat [2, 6]: 1.76

Further lines, the molecule ahead of its results:

B1: P056028-D-01 (protein)
chain: B2 chain with A122T, M182L, E356K
modifications: Zea mays variant form created by artificial means.
kcat ([1]; Megatable 3, shuffled variants): 0.355 s⁻¹
kcat [1, 5]: 0.355 s⁻¹
ON × OFF ([2]; Megatable 3, shuffled variants): 0.254
ON × OFF × kcat ([2]; Megatable 3, shuffled variants): 5.39
ON × OFF [2, 6]: 0.254
ON × OFF × kcat [2, 6]: 5.39
ON rate ratio [3]: 0.728
OFF rate ratio [4]: 0.348

B4: P056028-D-06 (protein)
chain: B2 chain with Y211L, S214N, I387L, G417S
modifications: Zea mays variant form created by artificial means.
kcat ([1]; Megatable 3, shuffled variants): 0.165 s⁻¹
kcat [1, 5]: 0.165 s⁻¹
ON × OFF ([2]; Megatable 3, shuffled variants): 0.310
ON × OFF × kcat ([2]; Megatable 3, shuffled variants): 3.07
ON × OFF [2, 6]: 0.310
ON × OFF × kcat [2, 6]: 3.07
ON rate ratio [3]: 0.731
OFF rate ratio [4]: 0.424

B6: P056028-D-04 (protein)
chain: B2 chain with Q206P, Y211L, S214N, G417S
modifications: Zea mays variant form created by artificial means.
kcat ([1]; Megatable 3, shuffled variants): 0.207 s⁻¹
kcat [1, 5]: 0.207 s⁻¹
ON × OFF ([2]; Megatable 3, shuffled variants): 0.137
ON × OFF × kcat ([2]; Megatable 3, shuffled variants): 1.71
ON × OFF [2, 6]: 0.137
ON × OFF × kcat [2, 6]: 1.71
ON rate ratio [3]: 0.696
OFF rate ratio [4]: 0.197

B8: P056028-D-02 (protein)
chain: B2 chain with M182L, A191G, Q206P, R340K
modifications: Zea mays variant form created by artificial means.
kcat ([1]; Megatable 3, shuffled variants): 0.405 s⁻¹
kcat [1, 5]: 0.405 s⁻¹
ON × OFF ([2]; Megatable 3, shuffled variants): 0.218
ON × OFF × kcat ([2]; Megatable 3, shuffled variants): 5.31
ON × OFF [2, 6]: 0.218
ON × OFF × kcat [2, 6]: 5.31
ON rate ratio [3]: 0.730
OFF rate ratio [4]: 0.299

B12: P056028-D-05 (protein)
chain: B2 chain with M182L, Q206S, R340K, E356R, G417S
modifications: Zea mays variant form created by artificial means.
kcat ([1]; Megatable 3, shuffled variants): 0.21 s⁻¹
kcat [1, 5]: 0.21 s⁻¹
ON × OFF ([2]; Megatable 3, shuffled variants): 0.371
ON × OFF × kcat ([2]; Megatable 3, shuffled variants): 4.66
ON × OFF [2, 6]: 0.371
ON × OFF × kcat [2, 6]: 4.66
ON rate ratio [3]: 0.730
OFF rate ratio [4]: 0.508

B13: P056028-D-07 (protein)
chain: B2 chain with M182L, R340K, L385I
modifications: Zea mays variant form created by artificial means.
kcat ([1]; Megatable 3, shuffled variants): 0.152 s⁻¹
kcat [1, 5]: 0.152 s⁻¹
ON × OFF ([2]; Megatable 3, shuffled variants): 0.286
ON × OFF × kcat ([2]; Megatable 3, shuffled variants): 2.60
ON × OFF [2, 6]: 0.286
ON × OFF × kcat [2, 6]: 2.60
ON rate ratio [3]: 0.775
OFF rate ratio [4]: 0.370
